Test results as given in patent publication US20190064149A1, “CANCER EXAMINATION METHOD AND EXAMINATION KIT” (THE UNIVERSITY OF TOKYO, priority 2013, published 2019).
Entries after “also recorded” stand apart in the source; their conditions may differ.

Key:
Assay type in all cases: cell-based, human
RhoG = RhoG activity pull-down with ELMO2/GST beads in MT1-MMP knockdown A431 cells; conditions: MT1-MMP knockdown A431 cells after EGF stimulation
Source text: By using A431 cells whose MT1-MMP expression was knocked down by siRNA, an influence of Ephrin-A1-dependent EphA2 on an RhoG signaling downstream of the EGF receptor was studied.
A fusion protein of ELMO2 and GST, each serving as an effector of RhoG, was solid phased on glutathione beads and the RhoG activity in a cell suspension solubilized with RIPA was detected by pull-down using ELMO2/GST beads as a bait. Co-precipitated RhoG was detected using an anti-RhoG polyclonal antibody (Santa Cruz) and the RhoG activity was quantified by densitometry with Image J. An expression vector of ELMO2 was kindly given by Chihiro Sasakawa, professor of Division of Bacterial Infection, Medical Institute of Science, The University of Tokyo.

A431 cells [1] = experiment: Migration activity of EGF-stimulated cells in a transwell chamber; conditions: EGF-stimulated MT1-MMP knockdown cells
Source text: No RhoG activity was detected from the cells not treated with EGF (A). […] Similar results were found in the SCC61 cells (C).

A431 cells [2] = experiment: Cell growth assay, three-dimensional collagen gel culture and spheroid formation; conditions: three-dimensional culture in collagen gel and anchorage-independent spheroid formation
Description: Collagen I gel (3 mg/ml, Nitta Gelatin) extracted in acetic acid, a neutralization buffer (50 mM NaOH, 260 mM NaHCO3, 200 mM HEPES), and each of the two types of cells were mixed and the resulting mixture was seeded to satisfy 2.5×10^4/250 μl/48 well plate. After completion of the polymerization of the collagen gel, they were cultured for 7 days in 400 μl/well of a DMEM/1% FCS culture solution. After culturing, the collagen gel was dissolved with 0.1% collagenase. The cells were treated with trypsin to dissociate them into single cells and the number of the cells was counted using a Coulter counter.
The two types of the cells were each detached with trypsin from one another and the number of the cells was counted by a hemocytometer. They were seeded in a low adhesion plate (PrimeSurface (registered trademark), Sumitomo Bakelite) of each cell protein (100 cells/100 μl/96 well plate) and cultured for 7 days in a DMEM/1% FCS culture solution. The number of spheroid formation cells was obtained from their volume (½×long diameter×(short diameter)^2).

B1: Ephrin-A1: typical ligand of EphA2 (protein)
chain: DRHTVFWNSSNPKFRNEDYTIHVQLNDYVDIICPHYEDHSVADAAMEQYILYLVEHEEYQLCQPQSKDQVRWQCNRPSAKHGPEKLSEKFQRFTPFTLGKEFKEGHSYYYISKPIHQHEDRCLRLKVTVSGKITHSPQAHDNPQEKRLAADDPEVRVLHSIGHS
Question: Which results are given for B1?
Answer: RhoG activity (RhoG): significant decrease; also recorded: significantly reduced; cell migration (A431 cells [1]): significantly suppressed; growth of MT1-MMP knockdown cells (A431 cells [2]): significantly suppressed
